From patent publication US7422883 (INTER K, dated 2008)
No end group written: not given here. *: point of attachment. Biotin = O=C1N[C@H]2[C@H](CS[C@H]2CCCCC(=O)*)N1

Columns and labels:
[1] = target: T1, GST.ERK2 (non-phosphorylated ERK2 coupled to glutathione-S-transferase) (Mus musculus (Mouse), UniProt P63085 1-358); test: ELISA, biotinylated peptide on streptavidin plate, detection with SC1647
T1 construct: not shown: glutathione-S-transferase encoded by pGEX vector; N-terminal position assu
T1 sequence (P63085 whole entry): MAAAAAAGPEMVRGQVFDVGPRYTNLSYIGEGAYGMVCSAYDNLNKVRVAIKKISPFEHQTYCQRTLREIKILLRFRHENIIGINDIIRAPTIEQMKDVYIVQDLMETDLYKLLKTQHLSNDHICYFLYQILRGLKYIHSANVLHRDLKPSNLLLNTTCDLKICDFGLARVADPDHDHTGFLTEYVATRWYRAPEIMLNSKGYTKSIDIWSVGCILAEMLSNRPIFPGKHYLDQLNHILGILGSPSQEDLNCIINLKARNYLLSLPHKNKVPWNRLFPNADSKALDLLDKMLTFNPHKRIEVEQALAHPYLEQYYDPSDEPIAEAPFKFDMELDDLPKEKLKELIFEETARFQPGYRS
Description: Peptide fragments corresponding to regions of the cytoplasmic tail domain of the β6 subunit were screened in an enzyme-linked immunosorbent assay (ELISA) for binding with ERK2. The 52 amino acid long β6 cytoplasmic tail is shown in FIG. 16 as are the amino acid sequences for the cytoplasmic domains of the β1 to β3 subunits. In particular, four synthetic peptides designated fragment 1 to fragment 4 were prepared and biotinylated at the N-terminal end of each, respectively (Auspep Pty Ltd, Melbourne Australia).
Overlapping biotinylated fragments 1 to 4 were coated onto streptavidin coated polystyrene plates (Pierce, Rockford Ill. USA, Cat No. 15125) and the ELISA performed substantially according to manufacturers instructions. […]
Binding of ERK to the peptides is detected using 100 µl anti-ERK1/2 mAb SC1647 (Santa Cruz) as the primary antibody at a dilution of 1:700 (isotype matched antibody IgG2b is used as a control). […] A […] of detection reagent (alkaline phosphatase detection kit-Biorad) is then introduced into each well after a final washing step and allowed to react for 15-30 minutes at room temperature in the dark before absorbance is measured at 405 nm. […]

[2] = target: T1, GST.ERK2 (non-phosphorylated ERK2 …); test: ELISA over a range of peptide concentrations (FIG. 20)
[3] = target: T2, ERK2 cleaved from GST-ERK2 by thrombin (Mus musculus (Mouse), UniProt P63085 1-358, limits assumed); test: ELISA with thrombin-cleaved ERK2 (FIG. 23)
T2 construct: also called ERK2 (thrombin cleaved)
T2 sequence (P63085 whole entry): as above

[4] = target: T3, ERK2 (soluble ERK2 used in the ELISAs of Examples 10 to 12) (Mus musculus (Mouse), UniProt P63085 1-358, limits assumed); test: ELISA, corrected for non-specific binding (FIG. 34)
T3 sequence (P63085 whole entry): as above

[5] = target: T3, ERK2 (soluble ERK2 used in the ELISAs …); test: ELISA of ERK2 on synthetic peptide

Biotin-RSKAKWQTGTNPLYRGSTST (also called peptide fragment 2) [Fragment 2 of the β6 cytoplasmic tail]: binds [1].

RSKAKWQTGTNPLYR (also: biotinylated, position not given here, also called 15-mer β6 peptide) [15 mer test peptide (seq. 4) RSKAKWQTGTNPLYR]: binds [2]; binds [3]; binds [4].

RSKAKWQTGT (also: biotinylated, position not given here) [10 mer test peptide RSKAKWQTGT]: binds [2].

RSKAKNPLYR (4 with WQTGT omitted) [10 mer peptide 10(4) RSKAKNPLYR]: binds [3].

RSRARYEMASNPLYR (also called β5 peptide; β5 fragment) [β5 cytoplasmic domain peptide RSRARYEMASNPLYR]: binds [4].

RARAKWDTANNPLYK (also called β3 peptide) [β3 cytoplasmic domain peptide RARAKWDTANNPLYK]: binds [4].

KFEKEKMNAKWDTGENPIYK (also called β1 peptide) [β1 cytoplasmic domain peptide KFEKEKMNAKWDTGENPIYK]: no binding (tested: ERK2 (1 µm) by the legend of FIG. 35C) [5].
